Laboratory results: article PMC2705212 (Journal of molecular biology, 2008)

B1: BMPRII-Fc chimera (soluble extracellular domain of BMP receptor II) (Fc fusion, human, UniProt Q13873 27-150, looked up)
chain: SQNQERLCAFKDPYQQDLGIGESRISHENGTILCSKGSTCYGLWEKSKGDINLVKQGCWSHIGDPQECHYEECVVTTTPPSIQNGTYRFCCCSTDLCNVNFTENFPPPDTTPLSPPHSFNRDET
B2: BMP-7 growth factor dimer (ligand, human, UniProt P18075 293-431, looked up)
chain: STGSKQRSQNRSKTPKNQEALRMANVAENSSSDQRQACKKHELYVSFRDLGWQDWIIAPEGYAAYYCEGECAFPLNSYMNATNHAIVQTLVHFINPETVPKPCCAPTQLNAISVLYFDDSSNVILKKYRNMVVRACGCH

What was measured:
[1] = biological target: BMP-7 prodomain-growth factor complex (UniProt P18075); assay: SPR
BMP-7 prodomain = assay: SPR
[2] = biological target: ActRIIA-Fc chimera (soluble extracellular domain of activin receptor IIA) (human) (UniProt P27037); assay: SPR
Sequence of ActRIIA-Fc chimera (soluble extracellular domain of activin receptor IIA) (human) (P27037 20-135, change not shown): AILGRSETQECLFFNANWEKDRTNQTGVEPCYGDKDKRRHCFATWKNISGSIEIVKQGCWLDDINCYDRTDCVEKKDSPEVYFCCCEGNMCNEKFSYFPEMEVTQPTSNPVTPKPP

[3] = biological target: BMPRII-Fc chimera (soluble extracellular domain of BMP receptor II) (human) (UniProt Q13873); assay: SPR
[4] = biological target: B2; assay: SPR
[5] = biological target: B1; assay: AUC

ActRIIA-Fc chimera (soluble extracellular domain of activin receptor IIA) (from UniProt P27037 20-135) (Fc fusion)
reduction of the response against immobilized BMP-7 gfd [1]: 90%

BMP-7 growth factor dimer (from UniProt P18075 293-431) (ligand)
koff (BMP-7 prodomain): 0.00209 s⁻¹
kon (BMP-7 prodomain): 98700 M⁻¹ s⁻¹

BMP-7 prodomain-growth factor complex (from UniProt P18075 293-431)
koff [2]: 0.00352 s⁻¹
kon [2]: 265000 M⁻¹ s⁻¹
koff [3]: 0.00213 s⁻¹
kon [3]: 216000 M⁻¹ s⁻¹

B1
koff [4]: 0.00298 s⁻¹
kon [4]: 625000 M⁻¹ s⁻¹
reduction of the response against immobilized BMP-7 gfd [1]: 90%

B2
stoichiometry N [5]: 2 gfd per BMPRII-Fc dimer
